Like-named read-outs stand apart in the source and are kept apart here.

These results are taken from US20220331349A1, “TARGETED NANOPARTICLES AND THEIR USES RELATED TO FUNGAL INFECTIONS” (UNIVERSITY OF GEORGIA RESEARCH FOUNDATION, INC., priority 2019, published 2022).

The conditions of assay [1]: cited from earlier work.
For the next assay, the system named is A. fumigatus. As to the kind of experiment: sDectin-2 liposome and DEC2-Rhod binding to A. fumigatus. Further details: species or system Aspergillus fumigatus. On the procedure: C. albicans CAI4 expressing GFP under control of the ADH1 promoter, A. fumigatus A1163, and wild type C. neoformans H99-alpha were grown in Vogel's Minimal Media (VMM)+1% glucose (85)+0.5% BSA or RPMI 1640 media with no red indicator dye (ThermoFisher SKU— 11835-030)+0.5% BSA or YPD (1% yeast extract, 2% peptone, 2% dextrose) in liquid with shaking or on 24 or 96 well polystyrene microtiter plates or on glass microscope chamber slides and incubated at 37° C. for 3 to 36 hr. Plates were pre-coated with poly-L-lysine for A. fumigatus and glass microscope slides were pre-coated with […]. All fungal cell growth was carried out in a BSL2 laboratory. […]
Formalin fixed fungal cells were incubated with liposomes at 23° C. in liposome dilution buffer LDB2 (20 mM HEPES, 10 mM Triethoanolamine, 150 mM NaCl, 10 mM CaCl2, 1 mM beta-mercaptoethanol (BME), 5% BSA pH 8.0), wherein the BME was added fresh. […] The area of liposome binding at 20× magnification was quantified by taking an 8-bit grey-scale copy of the unmodified red fluorescent TIF image into Image J (imagej.nih.gov/ij), using Image>Adjust>Threshold>Apply to capture just the red fluorescent areas illuminated by liposomes, and using Analyze>Measure to place the area data for each image in a file. Six to ten photographic images were generally analyzed and averaged for most area estimates. […]

The conditions of assay [2]: cited from earlier work. This is another data set of the same source.

Take “sDectin-1: soluble extracellular C-terminal beta glucan binding domain of Dectin-1 (CLEC7A)”: the EC50 in assay [1] (read-out: EC50s for binding various beta-glucans, strong end of range) was no less than 2.2e-09 mM; in assay [1] (read-out: EC50s for binding various beta-glucans, weak end of range), no more than 2 mM. In addition, the Kd was no less than 2.2e-09 mM in assay [1] (read-out: Kd affinity constants for various beta-glucans, strong end of range) and no more than 2.6 mM in assay [1] (read-out: Kd affinity constants for various beta-glucans, weak end of range).

B1: DEC2-Rhod: Rhodamine labeled sDectin-2 protein (conjugate, UniProt Q6EIG7 42-209, looked up)
extracellular domain: TYHFTYGETGKRLSELHSYHSSLTCFSEGTKVPAWGCCPASWKSFGSSCYFISSEEKVWSKSEQNCVEMGAHLVVFNTEAEQNFIVQQLNESFSYFLGLSDPQGNNNWQWIDKTPYEKNVRFWHLGEPNHSAEQCASIVFWKPTGWGWNDVICETRRNSICEMNKIYL
modifications: extracellular domain rhodamine label
notes: Rhodamine labeled sDectin-2 protein
On to B1, for which the “binding to A. fumigatus cell wall” value in the assay with A. fumigatus is given as “did not stain the cell wall”. Besides, the “binding to exopolysaccharide matrix of A. fumigatus” value with A. fumigatus (1 hr, 1:200 dilution) was “bound strongly to most of the exopolysaccharide matrix surrounding A. fumigatus hyphal cells”.

B2: sDectin-2: soluble mannan-recognition domain of Dectin-2 (CLEC6A) (protein, UniProt Q6EIG7 42-209, looked up)
extracellular domain: B1 extracellular domain
modifications: extracellular domain
For B2, the EC50 was roughly 2 mM in assay [2] (read-out: Effective Concentration for 50% of binding (EC50), mannan-a-1-2-mannan); roughly 0.15 mM in assay [2] (read-out: Effective Concentration for 50% of binding (EC50), mannoglycan); roughly 20 mM in assay [2] (read-out: Effective Concentration for 50% of binding (EC50), mannose).
